Experimental data: article PMC6215091
Like-named read-outs stand apart in the source and are kept apart here.

Tests used:
[1] = biological target: NaV1.2 (UniProt P04775)
[2] = biological target: NaV1.3 (UniProt P08104)
[3] = biological target: NaV1.4 (UniProt P15390)
[4] = biological target: NaV1.5 (UniProt Q14524)
[5] = biological target: NaV1.6 (UniProt Q9WTU3)
[6] = biological target: NaV1.7 (UniProt Q15858)
[7] = biological target: NaV1.8/1.7L5 channel
[8] = biological target: NaChBac (Bacillus halodurans)
[9] = biological target: NaChBac F103A (Bacillus halodurans)
[10] = biological target: NaChBac Q107A (Bacillus halodurans)
[11] = biological target: NaChBac V109A (Bacillus halodurans)
[12] = biological target: NaChBac/F108A (Bacillus halodurans)
[13] = biological target: NaChBac/G105A (Bacillus halodurans)
[14] = biological target: NaChBac (Bacillus halodurans); remark: listed apart in the source

UniProt Q15858, sequence (Q15858 whole entry): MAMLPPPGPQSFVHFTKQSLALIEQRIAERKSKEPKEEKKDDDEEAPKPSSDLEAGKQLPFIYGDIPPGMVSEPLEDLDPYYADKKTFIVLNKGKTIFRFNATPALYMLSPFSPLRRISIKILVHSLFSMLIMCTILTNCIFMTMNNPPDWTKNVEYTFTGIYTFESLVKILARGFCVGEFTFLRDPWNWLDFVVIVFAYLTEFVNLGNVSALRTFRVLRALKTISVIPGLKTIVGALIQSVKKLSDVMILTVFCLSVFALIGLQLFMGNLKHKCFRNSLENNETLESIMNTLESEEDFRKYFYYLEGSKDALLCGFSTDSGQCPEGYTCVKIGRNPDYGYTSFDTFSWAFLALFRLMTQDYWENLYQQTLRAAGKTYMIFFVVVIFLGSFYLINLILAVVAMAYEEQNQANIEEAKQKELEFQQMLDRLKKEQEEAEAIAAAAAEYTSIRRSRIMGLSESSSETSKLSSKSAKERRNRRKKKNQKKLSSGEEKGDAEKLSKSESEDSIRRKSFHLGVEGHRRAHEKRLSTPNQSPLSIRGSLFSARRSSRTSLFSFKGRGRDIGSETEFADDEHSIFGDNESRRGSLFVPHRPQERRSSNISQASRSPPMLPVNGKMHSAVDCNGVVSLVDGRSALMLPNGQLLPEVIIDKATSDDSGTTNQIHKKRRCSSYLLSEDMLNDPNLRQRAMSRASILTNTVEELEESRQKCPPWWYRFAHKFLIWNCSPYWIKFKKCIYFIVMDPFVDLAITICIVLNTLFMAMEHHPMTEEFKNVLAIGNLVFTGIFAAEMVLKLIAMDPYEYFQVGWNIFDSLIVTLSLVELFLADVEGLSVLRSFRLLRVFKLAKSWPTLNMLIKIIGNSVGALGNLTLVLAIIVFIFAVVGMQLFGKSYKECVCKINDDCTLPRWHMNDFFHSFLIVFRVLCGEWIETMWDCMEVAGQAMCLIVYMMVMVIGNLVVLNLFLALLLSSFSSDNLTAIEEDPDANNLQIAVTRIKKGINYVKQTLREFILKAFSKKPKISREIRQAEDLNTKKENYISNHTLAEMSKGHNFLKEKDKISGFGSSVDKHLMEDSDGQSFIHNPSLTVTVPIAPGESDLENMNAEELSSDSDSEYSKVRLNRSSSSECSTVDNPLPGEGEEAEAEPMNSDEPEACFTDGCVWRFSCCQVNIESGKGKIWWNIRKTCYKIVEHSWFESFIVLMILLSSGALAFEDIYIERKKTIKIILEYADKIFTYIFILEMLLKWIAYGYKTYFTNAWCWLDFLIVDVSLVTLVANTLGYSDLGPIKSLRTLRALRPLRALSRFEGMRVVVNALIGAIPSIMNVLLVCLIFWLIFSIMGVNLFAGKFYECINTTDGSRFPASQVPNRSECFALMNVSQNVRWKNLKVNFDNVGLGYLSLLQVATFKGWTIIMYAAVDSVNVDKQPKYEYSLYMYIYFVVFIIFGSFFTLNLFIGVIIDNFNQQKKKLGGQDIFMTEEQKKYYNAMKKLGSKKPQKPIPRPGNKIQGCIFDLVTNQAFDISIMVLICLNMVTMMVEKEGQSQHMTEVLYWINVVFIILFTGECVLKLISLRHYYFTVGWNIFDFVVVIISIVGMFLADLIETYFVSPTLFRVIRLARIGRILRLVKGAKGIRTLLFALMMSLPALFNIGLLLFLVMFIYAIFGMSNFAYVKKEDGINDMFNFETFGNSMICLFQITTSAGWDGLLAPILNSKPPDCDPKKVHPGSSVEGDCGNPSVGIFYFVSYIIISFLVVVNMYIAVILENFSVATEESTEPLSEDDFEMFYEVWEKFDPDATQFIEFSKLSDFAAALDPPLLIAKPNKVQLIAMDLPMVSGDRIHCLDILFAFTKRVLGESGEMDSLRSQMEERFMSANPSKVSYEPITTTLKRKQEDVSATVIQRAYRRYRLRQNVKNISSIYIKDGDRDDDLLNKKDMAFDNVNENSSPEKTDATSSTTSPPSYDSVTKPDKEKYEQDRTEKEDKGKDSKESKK
UniProt P04775, sequence (P04775 whole entry): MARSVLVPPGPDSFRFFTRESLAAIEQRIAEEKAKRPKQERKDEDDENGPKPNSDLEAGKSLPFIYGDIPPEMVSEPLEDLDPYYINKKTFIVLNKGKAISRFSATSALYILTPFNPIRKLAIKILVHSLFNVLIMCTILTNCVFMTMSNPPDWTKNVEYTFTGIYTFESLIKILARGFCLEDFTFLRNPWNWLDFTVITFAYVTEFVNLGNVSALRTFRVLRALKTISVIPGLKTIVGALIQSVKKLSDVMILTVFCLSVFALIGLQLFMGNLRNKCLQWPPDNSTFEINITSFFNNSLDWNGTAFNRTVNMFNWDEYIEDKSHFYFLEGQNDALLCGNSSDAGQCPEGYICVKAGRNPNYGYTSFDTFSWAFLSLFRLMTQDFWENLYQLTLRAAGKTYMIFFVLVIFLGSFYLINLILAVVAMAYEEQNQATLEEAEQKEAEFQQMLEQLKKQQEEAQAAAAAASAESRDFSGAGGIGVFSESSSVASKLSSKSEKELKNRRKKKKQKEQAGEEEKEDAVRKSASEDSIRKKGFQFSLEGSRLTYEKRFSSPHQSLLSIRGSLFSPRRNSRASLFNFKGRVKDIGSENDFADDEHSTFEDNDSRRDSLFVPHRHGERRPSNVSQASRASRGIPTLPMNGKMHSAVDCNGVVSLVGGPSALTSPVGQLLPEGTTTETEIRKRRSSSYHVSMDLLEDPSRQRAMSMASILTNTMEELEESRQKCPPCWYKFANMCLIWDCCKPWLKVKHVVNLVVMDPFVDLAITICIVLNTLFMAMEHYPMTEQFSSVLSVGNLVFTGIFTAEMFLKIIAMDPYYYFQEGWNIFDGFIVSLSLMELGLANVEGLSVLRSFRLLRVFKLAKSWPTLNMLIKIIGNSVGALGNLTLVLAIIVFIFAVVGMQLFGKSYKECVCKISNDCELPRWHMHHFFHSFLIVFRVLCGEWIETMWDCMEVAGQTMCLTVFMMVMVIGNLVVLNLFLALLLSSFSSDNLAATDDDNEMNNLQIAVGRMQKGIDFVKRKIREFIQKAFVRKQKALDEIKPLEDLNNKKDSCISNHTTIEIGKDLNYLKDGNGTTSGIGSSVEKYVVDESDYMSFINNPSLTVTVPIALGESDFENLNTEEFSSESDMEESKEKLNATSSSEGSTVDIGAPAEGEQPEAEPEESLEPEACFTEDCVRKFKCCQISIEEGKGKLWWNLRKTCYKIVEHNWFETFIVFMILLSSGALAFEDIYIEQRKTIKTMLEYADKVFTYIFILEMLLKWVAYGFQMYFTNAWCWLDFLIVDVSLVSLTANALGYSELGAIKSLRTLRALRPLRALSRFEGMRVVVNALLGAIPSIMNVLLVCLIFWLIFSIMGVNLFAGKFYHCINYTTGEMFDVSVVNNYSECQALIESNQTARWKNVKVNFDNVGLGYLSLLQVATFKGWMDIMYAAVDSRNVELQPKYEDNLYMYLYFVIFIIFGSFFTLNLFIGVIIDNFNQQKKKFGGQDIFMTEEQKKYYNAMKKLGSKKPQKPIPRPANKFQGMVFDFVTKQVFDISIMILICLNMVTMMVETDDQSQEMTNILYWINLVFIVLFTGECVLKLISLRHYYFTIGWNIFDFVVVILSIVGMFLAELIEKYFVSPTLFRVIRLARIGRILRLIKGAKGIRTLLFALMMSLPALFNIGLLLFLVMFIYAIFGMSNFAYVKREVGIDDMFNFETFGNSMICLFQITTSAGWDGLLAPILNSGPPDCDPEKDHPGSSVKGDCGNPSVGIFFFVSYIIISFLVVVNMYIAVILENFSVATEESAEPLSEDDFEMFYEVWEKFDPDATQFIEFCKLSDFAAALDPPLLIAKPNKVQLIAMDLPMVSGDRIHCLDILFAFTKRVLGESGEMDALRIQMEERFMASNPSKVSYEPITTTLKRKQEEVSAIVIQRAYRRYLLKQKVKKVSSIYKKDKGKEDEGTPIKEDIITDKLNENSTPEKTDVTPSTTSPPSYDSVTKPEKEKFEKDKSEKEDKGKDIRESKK

Row | Substance | IC50 of inhibition of the peak current, whole-cell patch clamp, dose–response curve [1] [nM] | IC50 of inhibition of the peak current, whole-cell patch clamp, dose–response curve [2] [nM] | IC50 of inhibition of the peak current, whole-cell patch clamp, dose–response curve [3] [nM] | IC50 of inhibition of the peak current, whole-cell patch clamp, dose–response curve [4] [nM] | IC50 of inhibition of the peak current, whole-cell patch clamp, dose–response curve [5] [nM] | IC50 of inhibition of the peak current, whole-cell patch clamp, dose–response curve [6] [nM] | IC50 of inhibition of the peak current, whole-cell patch clamp, dose–response curve [7] [nM] | IC50 of inhibition of the current, whole-cell patch clamp, dose–response curve [8] [nM] | IC50 of inhibition of the current, whole-cell patch clamp, dose–response curve [9] [nM] | IC50 of inhibition of the current, whole-cell patch clamp, dose–response curve [10] [nM] | IC50 of inhibition of the current, whole-cell patch clamp, dose–response curve [11] [nM] | IC50 of inhibition of the current, whole-cell patch clamp, dose–response curve [12] [nM] | IC50 of inhibition of the current, whole-cell patch clamp, dose–response curve [13] [nM] | IC50 of inhibition of the current, whole-cell patch clamp, dose–response curve [14] [nM]
1 | JZTx-14 (from UniProt B1P1C0 30-62) (peptide) | 194 | 426 | 290 | 478 | 159 | 189 | 824 | 320 | 833 | 810 | 1370 | 3470 | 653 | 
2 | JZTx-27 (peptide) |  |  |  |  |  |  |  |  |  |  |  | 117 |  | 46.7
